Values quoted from earlier work as cited in article PMC8406260.
pKd: −log10 of the molar value.

Molecular target: SARS-CoV-2 main protease Mpro (Severe acute respiratory syndrome coronavirus 2) (UniProt P0DTD1)

Question: With “SARS-CoV-2 main protease Mpro (from UniProt P0DTD1)” as the substance, how does the pKd read?
Answer: Its pKd is 5.70.
